# Assay results: patent US20020102257A1 (published 2002)
# B1: humanized 1129 antibody (CDR-grafted MAb 1129, human COR VH / K102 VL frameworks, human IgG1 kappa) (antibody, V domains shown)
# VH: QVTLRESGPALVKPTQTLTLTCTFSGFSLSTSGMSVGWIRQPPGKALEWLADIWWDDKKDYNPSLKSRLTISKDTSKNQVVLKVTNMDPADTATYYCARSMITNWYFDVWGAGTTVTVSS
# VL: DIQMTQSPSTLSASVGDRVTITCKCQLSVGYMHWYQQKPGKAPKLWIYDTSKLASGVPSRFSGSGSGTEFTLTISSLQPDDFATYYCFQGSGYPFTFGGGTKLEIK
# B2: murine monoclonal antibody MAb 1308F (antibody, V domains shown)
# VH: EVQKQQSGAELVRPGALVKLSCKASGFNIKDYYIYWVKQRPEQGLEWIGWIDPENGNTVFDPLFQGKASITSDTSSNTAYLQLSSLTSEDTAVYYCAYYGTSSFDFWGQGTTLTVSS
# VL: DIKMTQSPSSMYVSLGERVTITCKASQDINRYLNWFQQKPGKSPKTLIHRANRLVDGVPSRFSGSGSGQEYSLTISSLEFEDMGIYYCLQFHEFPYTFGGGTKLEIL
# B3: humanized 1308F antibody (CDR-grafted MAb 1308F, human HV3 VH / K102 VL frameworks, human IgG1 kappa) (antibody, V domains shown)
# VH: QVQLVQSGAEVKKPGASVKVSCKASGFNIKDYYIYWVRQAPGQGLEWIGWIDPENGNTVFDPKFNGRVTMTRDTSTSTVYMELSSLRSEDTAVYYCAYYGTSSFDFWGQGTTLTVSS
# VL: DIQMTQSPSTLSASVGDRVTITCKASQDINRYLNWYQQKPGKAPKLLIYRANRLVDGVPSRFSGSGSGTEFTLTISSLQPDDFATYYCLQFHEFPYTFGGGTKLEIL
# Tests used:
# [1] = molecular target: RSV F protein, C-terminal truncated, secreted from recombinant baculovirus (respiratory syncytial virus) (UniProt P03420); experiment: SPR (BIAcore), F protein amine-coupled, Kd = kd/ka
# [2] = molecular target: RSV F protein, C-terminal truncated, secreted from recombinant baculovirus (respiratory syncytial virus) (UniProt P03420); experiment: SPR (BIAcore), F protein amine-coupled, Mab injected 25-300 nM
# [3] = molecular target: T1, RSV F protein, C-terminal truncated, secreted from recombinant baculovirus (respiratory syncytial virus, UniProt P03420 26-524); experiment: as above
# T1 construct: also called RSV F glycoprotein; RSV F antigen
Molecule,Kd [1] [nM],koff [2] [s⁻¹],kon [2] [M⁻¹ s⁻¹],t1/2 [2] [h],t1/2 [3] [h]
chimeric 1129 antibody (murine 1129 VH and VL joined to human C-gamma 1 and C-kappa),1.5,7.5e-05,50000,2.6,
murine monoclonal antibody MAb 1129,11.4,,35000,0.48,
B1,,,,,2.8
B2,,,,,5.1
B3,,,,,3.5
